What all share (conditions): protein: recombinant; tags: His6; Alexa647 label; chain copies: 2; label: 5' biotin strand 1; Cy3B on strand 2 (position 13); blunt
Data set [1] has as its target T1, CAP (catabolite activator protein), Alexa647-CAP (UniProt P0ACJ8 2-210, H18C;C179S). The data set is described as follows: single-molecule TIRF (koff/kon); 0.2 mM cAMP, 10 mM Mg2+; kon 9.73e6 M-1s-1, t2 8.45 s; 1.5 nM CAP, 0.2 mM cAMP, 40 mM Tris pH 8, 100 mM KCl, 10 mM MgCl2, 5% glycerol, 1 mM TROLOX, glucose oxidase/catalase oxygen scavenger (Methods also lists 40% glucose), 27-30 C.

Data set [2] concerns the target T1, CAP (catabolite activator protein), …. Nature of the data set: single-molecule TIRF (koff/kon); 0.2 mM cAMP, 10 mM Mg2+; kon 10.24e6 M-1s-1, t2 3.3 s; 1.5 nM CAP, 0.2 mM cAMP, 40 mM Tris pH 8, 100 mM KCl, 10 mM MgCl2, 5% glycerol, 1 mM TROLOX, glucose oxidase/catalase oxygen scavenger (Methods also lists 40% glucose), 27-30 C.
Data set [3] shares this target. Nature of the data set: single-molecule TIRF (koff/kon); 0.2 mM cAMP, 10 mM Mg2+; kon 8.74e6 M-1s-1, t2 5.2 s; 1.5 nM CAP, 0.2 mM cAMP, 40 mM Tris pH 8, 100 mM KCl, 10 mM MgCl2, 5% glycerol, 1 mM TROLOX, glucose oxidase/catalase oxygen scavenger (Methods also lists 40% glucose), 27-30 C.

B1: CAPcons DNA (GSeq-CAP-(1-49)) (dsDNA)
DNA 1: GTGCCTAAAATGTGATCTAGATCACATTTATTGCGTAGAGCTCACTGCC
DNA 2: GGCAGTGAGCTCTACGCAATAAATGTGATCTAGATCACATTTTAGGCAC
B1: the dissociation constant (Kd) in data set [1] is about 12 nM.

B2: CAPmut2 DNA (GP25,CP38) (dsDNA)
DNA 1: GTGCCTAAAATCTGATCTAGATCAGATTTATTGCGTAGAGCTCACTGCC
DNA 2: GGCAGTGAGCTCTACGCAATAAATCTGATCTAGATCAGATTTTAGGCAC
On to B2, for which the Kd in data set [2] was about 30 nM.

B3: CAPmut1 DNA (GP25/CP25) (dsDNA)
DNA 1: GTGCCTAAAATGTGATCTAGATCAGATTTATTGCGTAGAGCTCACTGCC
DNA 2: GGCAGTGAGCTCTACGCAATAAATCTGATCTAGATCACATTTTAGGCAC
For B3, the Kd in data set [3] was about 22 nM.

For orientation: Kd means the equilibrium constant for the complex coming apart.

The values above are taken from publication doi:10.1101/2022.02.27.482175, “Transient DNA binding to gapped DNA substrates links DNA sequence to the single-molecule kinetics of protein-DNA interactions”.
